Source: patent US20090311283A1
Like-named read-outs stand apart in the source and are kept apart here.

Columns and labels:
[1] = target: HLA-B*5101 (Human); assay: competition with 125I-labelled probe peptide for purified HLA, gel filtration
[2] = target: HLA-B*5401 (Human); assay: as above
[3] = target: HLA-B*3501 (Human); assay: as above
[4] = target: HLA-A*0201 (human)
[5] = target: HLA-A*0301 (human); assay: competitive inhibition of 125I-labelled probe peptide binding to purified HLA, gel filtration; conditions: scale: ratio
[6] = target: HLA-A*0201 (Human)
[7] = target: HLA-A*0301 (human); assay: competition with 125I-labelled probe peptide for purified HLA, gel filtration
[8] = target: HLA-A*0201 (human); assay: as above
[9] = target: HLA-A*0301 (human); assay: competition with 125I probe peptide on purified HLA-A*0301; relative to standard peptide 941.12; conditions: remark: other sources report otherwise
[10] = target: HLA-A*1101 (human); conditions: remark: other sources report otherwise
[11] = target: HLA-A*6801 (human); assay: competition with 125I probe peptide on purified HLA-A*6801; relative to standard peptide 941.12; conditions: remark: other sources report otherwise
[12] = target: HLA-A*3101 (human); assay: competition with 125I probe peptide on purified HLA-A*3101; relative to standard peptide 941.12; conditions: remark: other sources report otherwise
[13] = target: HLA-A*3101 (human); assay: competition with 125I-labelled probe peptide for purified HLA-A*3101, gel filtration; ratio to standard peptide 941.12
[14] = target: HLA-A*3301 (human)
[15] = remark: other sources report otherwise

For LPLDKGIKPYY (modifications not checked) [HBV POL 123 peptide …], the binding affinity ratio (IC50 of standard peptide / IC50 of test peptide) [1] was 0.0001, the binding affinity ratio (IC50 of standard peptide / IC50 of test peptide) [2] was 0.0001 and the binding affinity ratio (IC50 of standard peptide / IC50 of test peptide) [3] was 0.0009.

For LLGCAANWI (modifications not checked) [HBV POL 752 peptide …], the binding affinity ratio (IC50 of standard peptide / IC50 of test peptide) [4] was 0.0011.

YLPLDKGIKPY (modifications not checked) [HBV POL 122 peptide …] showed a binding affinity ratio (relative binding to standard peptide) [5] of -0.0004.

Work on NLGNLNVSI (modifications not checked) [HBV POL 42 peptide …] yielded a binding affinity ratio (IC50 of standard peptide / IC50 of test peptide) (ratio to standard peptide) [6] of 0.0047.

WGMDIDPYK (modifications not checked) [HBV NUC 28 peptide …] gave a binding affinity ratio (IC50 of standard peptide / IC50 of test peptide) (ratio to standard peptide) [7] of -0.0003.

WIRTPPAY (modifications not checked) [HBV NUC 125 peptide WIRTPPAY] showed a binding affinity ratio (relative binding to standard peptide) [5] of -0.0002.

In the case of YSLNFMGY (modifications not checked) [HBV POL 580 peptide YSLNFMGY], the binding affinity ratio (relative binding to standard peptide) [5] is reported as -0.0002.

GLSPTVWL (modifications not checked) [HBV ENV 348 peptide GLSPTVWL] was tested, and the binding affinity ratio (IC50 of standard peptide / IC50 of test peptide) [6] was 0.0036.

For WLQFRNSK (modifications not checked) [HBV POL 314 peptide WLQFRNSK], the binding affinity ratio (relative binding to standard peptide) [5] was -0.0002.

PILSTLPETT (modifications not checked) showed a binding affinity ratio (IC50 of standard peptide / IC50 of test peptide) [8] of 0.0001.

WMCLRRFIIFL (modifications not checked) [HBV ENV 237 11-mer peptide …] was tested, and the binding affinity ratio (IC50 of standard peptide / IC50 of test peptide) [4] was 0.0019.

Binder GLLGFAAPFT (modifications not checked) [HBV POL 627 peptide …] has a binding affinity ratio (IC50 of standard peptide / IC50 of test peptide) [6] of 0.0049.

SAGPCALR (modifications not checked) [HBV X 65 peptide SAGPCALR] gave a binding affinity ratio (IC50 standard peptide / IC50 test peptide) [9] of -0.0002, a binding affinity ratio (IC50 standard peptide / IC50 test peptide) [10] of 0.002 and a binding affinity ratio (IC50 standard peptide / IC50 test peptide) [11] of 0.036. It also gave a binding affinity ratio (IC50 standard peptide / IC50 test peptide) [12] of 0.0029.

In the case of FTSAICSVV (modifications not checked) [HBV POL 518 …], the binding affinity ratio (IC50 of standard peptide / IC50 of test peptide) [6] is reported as 0.009.

NLNVSIPWT (modifications not checked) [HBV POL 45 peptide …] was tested, and the binding affinity ratio (IC50 of standard peptide / IC50 of test peptide) (ratio to standard peptide) [6] was 0.0005.

With PARDVLCLR (modifications not checked) [HBV X 11 peptide …] the binding affinity ratio (IC50 of standard peptide / IC50 of test peptide) [13] was 0.01 and the binding affinity ratio (IC50 of standard peptide / IC50 of test peptide) [14] was 0.018.

With FLVDKNPHNT (modifications not checked) [HBV POL 363 …] the binding affinity ratio (IC50 of standard peptide / IC50 of test peptide) [6] was 0.0012.

YVPSALNPA (modifications not checked) [HBV POL 768 peptide …] showed a binding affinity ratio (IC50 of standard peptide / IC50 of test peptide) [4] of 0.0039.

In the case of LVSFGVWI (modifications not checked) [HBV NUC 119 peptide LVSFGVWI], the binding affinity ratio (IC50 of standard peptide / IC50 of test peptide) (ratio to standard peptide) [6] is reported as 0.0004.

Binder PILSTLPET (modifications not checked) has a binding affinity ratio (IC50 of standard peptide / IC50 of test peptide) [8] of 0.0001.

LLTRILTI (modifications not checked) [HBV ENV 184 peptide LLTRILTI] gave a binding affinity ratio (IC50 of standard peptide / IC50 of test peptide) [4] of 0.0026.

SVRFSWLSLL (modifications not checked) [HBV ENV 330 peptide …] was tested, and the binding affinity ratio (IC50 of standard peptide / IC50 of test peptide) [6] was 0.0004.

Work on PIILGFRKI (modifications not checked) [HBV POL 496 peptide …] yielded a binding affinity ratio (IC50 of standard peptide / IC50 of test peptide) [8] of 0.0001.

With RVTGGVFLV (modifications not checked) [HBV POL 357 9-mer …] the binding affinity ratio (IC50 of standard peptide / IC50 of test peptide) [6, 15] was 0.0041.

Work on GLSPTVWLSVI (modifications not checked) [HBV ENV 348 peptide …] yielded a binding affinity ratio (IC50 of standard peptide / IC50 of test peptide) [6] of 0.0036.

TSAICSVVR (modifications not checked) [HBV POL 519 peptide …] showed a binding affinity ratio (IC50 standard peptide / IC50 test peptide) [9] of 0.0005, a binding affinity ratio (IC50 standard peptide / IC50 test peptide) [14, 15] of 0.02 and a binding affinity ratio (IC50 standard peptide / IC50 test peptide) [11] of 0.082. The binding affinity ratio (IC50 standard peptide / IC50 test peptide) [12] was 0.06.

LLDYQGML (modifications not checked) [HBV ENV 260 peptide LLDYQGML] gave a binding affinity ratio (IC50 of standard peptide / IC50 of test peptide) [4] of 0.0004.
